US20220411514A1, “ANTI-GAL3 ANTIBODIES AND METHODS OF USE FOR INSULIN RESISTANCE” (TrueBinding, Inc., priority 2021, published 2022)
Where a chain is given by its changes, count along the chain named.

B1: 20H5.A3-VH3VL1: anti-Gal3 antibody, VH SEQ ID NO: 814, VL SEQ ID NO: 829 (antibody, V domains shown)
VH: QIQLVQSGSELKKPGASVKVSCKASGYAFTTYGMSWVRQAPGQGLEWMGWVNTYSGVPTYADDFTGRFVFSLETSVSTAYLQISSLKAEDTAVYFCARGPYAMDYWGQGTLVTVSS
VL: DIQMTQSPSSLSASVGDRVTITCQASQDISNYLNWYQQKPGKAPKLLIYYTSSLLTGVPSRFSGSGSGTDYTFTISSLQPEDIATYYCQQYSKLPYTFGQGTKLEIK
modifications: VH-88 Peptide Sequence; VL-86 Peptide Sequence
B2: 20H5.A3-VH4VL1: anti-Gal3 antibody, VH SEQ ID NO: 816, VL SEQ ID NO: 831 (antibody, V domains shown)
VH: B1 VH with Y60S
VL: B1 VL
modifications: VH-90 Peptide Sequence; VL-88 Peptide Sequence
B3: 20H5.A3-VH5VL1: anti-Gal3 antibody, VH SEQ ID NO: 817, VL SEQ ID NO: 832 (antibody, V domains shown)
VH: B1 VH with I2V, S9F, V20I, D62Q, D63A, E73D, F95Y
VL: B1 VL
modifications: VH-91 Peptide Sequence; VL-89 Peptide Sequence
B4: 20H5.A3-VH3VL3: anti-Gal3 antibody, VH SEQ ID NO: 815, VL SEQ ID NO: 830 (antibody, V domains shown)
VH: B1 VH
VL: B1 VL with Q24R, T56S, F73L, I83F
modifications: VH-89 Peptide Sequence; VL-87 Peptide Sequence
B5: 2D10-hVH3-HVL2: anti-Gal3 antibody, VH SEQ ID NO: 811, VL SEQ ID NO: 826 (antibody, V domains shown)
VH: QVQLVQSGAEVKKPGASVKVSCKASGYTFTDYYINWVRQAPGQRLEWMGWIYPGSQDTKYSQKFQGRVTITVDTSASTAYMELSSLRSEDTAVYYCANYFGSSGWFFDVWGQGTMVTVSS
VL: DIVMTQSPLSLPVTPGEPASISCRSSKSLLHSDGITYLYWYLQKPGQSPQLLIYRMSNLASGVPDRFSGSGSGTDFTLKISRVEAEDVGVYYCAQMIEFPLTFGQGTKLEIK
modifications: VH-85 Peptide Sequence; VL-83 Peptide Sequence
B6: 2D10-hVH3-HVL4: anti-Gal3 antibody, VH SEQ ID NO: 813, VL SEQ ID NO: 828 (antibody, V domains shown)
VH: B5 VH
VL: B5 VL with P15L, E17Q, L42Q, K44R, A60D
modifications: VH-87 Peptide Sequence; VL-85 Peptide Sequence
B7: 2D10-hVH3-HVL3: anti-Gal3 antibody, VH SEQ ID NO: 812, VL SEQ ID NO: 827 (antibody, V domains shown)
VH: B5 VH
VL: B5 VL with I2V, P15L, E17Q, L42Q, K44R, Q50R, L59R, A60D
modifications: VH-86 Peptide Sequence; VL-84 Peptide Sequence

Test system: GLUT4 translocation in L6 GLUT4myc myoblasts
Assay: Insulin-stimulated GLUT4 translocation with Gal3 and anti-Gal3 antibody
Assay type: cell-based, rat
Details: 30 μg/mL Gal3 pre-incubated with 60 μg/mL antibody, 100 nM insulin
Procedure: Rat L6 GLUT4myc myoblasts (Kerafast #ESK202-FP) express a Myc-tagged GLUT4 that can be detected with an anti-Myc antibody. These cells were grown in a 48-well plate in MEM u growth media (Gibco, #12-571-063)+10% fetal bovine serum (FBS; Corning #35-016-CV) until 90-95% confluence was reached. Cells were then washed in PBS and serum starved for 2 hours in MEM u growth media without FBS. Thirty (30) μg/mL recombinant human Gal3 (TrueBinding QCB200347) was pre-incubated with 60 μg/mL anti-Gal3 antibodies for 30 minutes before being added to the serum-starved cells for 1 hour at 37° C. At the end of incubation, half of the cells were treated with 100 nM insulin (Sigma-Aldrich #I5523-50MG) for 20 minutes while the other half acted as basal controls. After 20 minutes, cells were washed quickly with ice cold PBS twice, then incubated with 4% paraformaldehyde (Boster Bio #AR1068) for 10 minutes on ice followed by 10 minutes at room temperature. The cells were washed three times with PBS, then blocked with 0.5 mL 5% goat serum (Vector Laboratories #101098-382) in PBS for 15 minutes. After the blocking agent was aspirated from the cells, 1 μg/ml anti-Myc polyclonal antibody (Sigma-Aldrich #C-3956) in 5% goat serum was added for 1 hour. […] Primary antibody was aspirated away, and then cells washed 5 times with PBS. Next, cells (including background controls) were incubated with 1:1000 goat anti rabbit antibody secondary antibody (Abcam #Ab97051) in 5% Goat serum for 30 minutes at room temperature. After washing, cells were incubated with 400 μL of TMB (Thermo Scientific #PI34029) for 5 minutes, then 200 μL of 1N HCL (Avantor Performance #JT5620-2) was added to stop the reaction. 100 μL of the sample was transferred to a 96 well plate with duplicates transferred for each condition. Samples were read at 450 nm on a SpectraMax plate reader. […] The fold changes were plotted on GraphPad Prism and presented as mean (SEM) of the technical replicates. Statistical significance was determined using unpaired T-tests comparing samples treated with Gal3 and insulin with all other conditions.

Row | Molecule | effect on Gal3 block of insulin-stimulated GLUT4 translocation
1 | B1 | reduce the ability of Gal3 to block insulin-dependent GLUT4 translocation
2 | B2 | reduce the ability of Gal3 to block insulin-dependent GLUT4 translocation
3 | B3 | reduce the ability of Gal3 to block insulin-dependent GLUT4 translocation
4 | B4 | reduce the ability of Gal3 to block insulin-dependent GLUT4 translocation
5 | B5 | reduce the ability of Gal3 to block GLUT4 translocation
6 | B6 | reduce the ability of Gal3 to block GLUT4 translocation
7 | B7 | reduce the ability of Gal3 to block GLUT4 translocation
